For one experiment, the target named is T1, ALPL (UniProt P05186 18-501, limits assumed).
T1 construct: whole, on cells; Expressed on ALPL-transfected HEK293 cells; also called tissue-nonspecific, liver/bone/kidney alkaline phosphatase
T1 sequence (looked up): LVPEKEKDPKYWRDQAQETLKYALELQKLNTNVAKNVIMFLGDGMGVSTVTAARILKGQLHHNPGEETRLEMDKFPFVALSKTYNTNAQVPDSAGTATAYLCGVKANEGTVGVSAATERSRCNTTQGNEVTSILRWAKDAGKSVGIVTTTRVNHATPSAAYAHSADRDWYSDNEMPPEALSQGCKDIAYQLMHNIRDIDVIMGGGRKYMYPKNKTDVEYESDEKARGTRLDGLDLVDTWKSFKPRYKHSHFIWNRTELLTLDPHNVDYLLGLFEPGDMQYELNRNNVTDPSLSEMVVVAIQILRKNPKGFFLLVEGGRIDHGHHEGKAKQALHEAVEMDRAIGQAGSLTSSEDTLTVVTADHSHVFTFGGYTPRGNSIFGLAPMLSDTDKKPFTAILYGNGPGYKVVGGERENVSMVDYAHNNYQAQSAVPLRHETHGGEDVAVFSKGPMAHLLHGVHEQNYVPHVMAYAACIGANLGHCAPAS
Description: FACS on live transfected HEK293 cells, IgG1.

For another experiment, the target named is T2, ALPP (human, UniProt P05187 23-506).
T2 construct: Expressed on transfected HEK293 cells; also called placentally expressed ALPP
T2 sequence (P05187 23-506 limits assumed): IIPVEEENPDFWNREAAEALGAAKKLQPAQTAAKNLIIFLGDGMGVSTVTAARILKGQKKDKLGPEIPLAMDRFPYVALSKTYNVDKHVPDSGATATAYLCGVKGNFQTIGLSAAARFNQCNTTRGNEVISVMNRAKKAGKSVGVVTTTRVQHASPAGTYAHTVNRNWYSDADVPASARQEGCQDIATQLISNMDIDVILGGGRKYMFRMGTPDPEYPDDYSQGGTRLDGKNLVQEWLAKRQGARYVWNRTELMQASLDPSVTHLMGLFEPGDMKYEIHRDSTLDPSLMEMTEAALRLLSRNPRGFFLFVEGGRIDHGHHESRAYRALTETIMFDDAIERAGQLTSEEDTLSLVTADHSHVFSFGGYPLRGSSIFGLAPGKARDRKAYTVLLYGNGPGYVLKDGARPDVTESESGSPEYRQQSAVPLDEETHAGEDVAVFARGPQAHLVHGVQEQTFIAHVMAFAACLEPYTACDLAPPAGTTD
In words: FACS on live ALPP-transfected HEK293 cells.

Experiment [1] has as its target T3, ALPPL2 (human, UniProt P10696 20-503).
T3 construct: Expressed from an ALPPL2 plasmid or cDNA on HEK293 cells, and endogenous on tumor cells; also called placentally expressed ALPPL2; membrane ALPPL2
In words: FACS on live HEK293 cells transfected with ALPPL2 (GFP+ gated), curve fit of normalized MFI; ALPPL2-transfected HEK293 cells. The protocol: Cells were incubated with antibody at room temperature for 1h in PBS/0.2% fetal calf serum, washed three times and further incubated with ALEXAFLOU®-647-labeled anti-human secondary antibody. GFP+ cells were gated and analyzed for mean fluorescence intensity (MFI). […] Similar binding results were obtained on ALPP-transfected cells. There is no binding to ALPL-transfected cells.

The target of experiment [2] is T3, ALPPL2. Description: apparent affinity on tumor cells, IgG1; method and cell line not stated; tumor cells, IgG1 form.
In another experiment the target is T4, ALPI (UniProt P09923 20-503, limits assumed).
T4 construct: whole, on cells; Expressed on ALPI-transfected HEK293 cells; also called intestinal alkaline phosphatase
T4 sequence (looked up): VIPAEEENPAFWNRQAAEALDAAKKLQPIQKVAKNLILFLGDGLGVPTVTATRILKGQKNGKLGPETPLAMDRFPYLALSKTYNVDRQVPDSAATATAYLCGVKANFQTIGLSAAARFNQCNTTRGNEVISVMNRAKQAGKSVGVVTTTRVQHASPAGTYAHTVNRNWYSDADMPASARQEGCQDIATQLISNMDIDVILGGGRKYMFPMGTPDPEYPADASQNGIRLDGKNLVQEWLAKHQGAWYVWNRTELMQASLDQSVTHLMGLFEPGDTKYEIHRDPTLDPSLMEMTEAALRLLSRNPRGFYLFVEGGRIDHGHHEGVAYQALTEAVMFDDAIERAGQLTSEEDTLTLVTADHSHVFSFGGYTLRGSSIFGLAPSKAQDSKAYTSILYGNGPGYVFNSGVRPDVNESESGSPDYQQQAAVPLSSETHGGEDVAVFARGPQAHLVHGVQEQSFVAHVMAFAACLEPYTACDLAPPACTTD
In words: FACS on live transfected HEK293 cells, IgG1.

Experiment [3] concerns the target T3, ALPPL2. Description: FACS on live HEK293 cells transfected with ALPPL2 (GFP+ gated), curve fit of normalized MFI. The protocol: Cells were incubated with antibody at room temperature for 1h in PBS/0.2% fetal calf serum, washed three times and further incubated with ALEXAFLOU®-647-labeled anti-human secondary antibody. GFP+ cells were gated and analyzed for mean fluorescence intensity (MFI). […] Similar binding results were obtained on ALPP-transfected cells. There is no binding to either ALPL or ALPI-transfected cells.

Positions count from the first letter of the chain named.

T3 sequence (P10696 20-503 limits assumed): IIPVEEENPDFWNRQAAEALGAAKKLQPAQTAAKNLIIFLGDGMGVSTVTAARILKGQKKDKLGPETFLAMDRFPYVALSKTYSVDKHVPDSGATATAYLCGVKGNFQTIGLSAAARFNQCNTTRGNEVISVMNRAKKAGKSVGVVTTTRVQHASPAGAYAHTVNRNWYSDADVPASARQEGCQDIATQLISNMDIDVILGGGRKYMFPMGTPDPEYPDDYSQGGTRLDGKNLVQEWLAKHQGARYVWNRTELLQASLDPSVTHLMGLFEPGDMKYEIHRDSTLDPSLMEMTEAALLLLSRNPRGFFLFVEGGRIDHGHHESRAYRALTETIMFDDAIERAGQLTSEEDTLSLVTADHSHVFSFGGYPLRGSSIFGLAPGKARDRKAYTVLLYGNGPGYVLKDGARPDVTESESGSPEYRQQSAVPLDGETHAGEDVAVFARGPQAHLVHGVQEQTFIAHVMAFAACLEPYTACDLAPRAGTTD

B1: M25ADLF IgG1 (antibody, V domains shown)
VH: QVQLQQSGGGLVKPGGSLRLSCAASGFTFSSYDMHWVRQAPGKGLEWVAVISYDGSNKYYADSVKGRFTISRDNSKNTLYLQMDSLRAEDTAVYFCAKEGDSSRWSYDLWGRGTLVTVSS
VL: QSALTQPASVSGSPGQSITISCTGTSSDVGGYNYVSWYQQHPGKAPKVMIYDVTNRPSGVSNRFSGSKSGNTASLTISGLQAEDEADYYCSSYTSTSTFVVFGGGTKLTVLG
notes: Tested as human IgG1; Residue limits are from CLM-00120
B1: the binding result in the experiment with ALPL is “no binding”; with ALPP, “binds”. The molecule also gave a Kd with ALPPL2 [1] of 0.017 nM.

B2: M25FYIA IgG1 (antibody, V domains shown)
VH: B1 VH with D33A, F95Y
VL: QSALTQPASVSGSPGQSITISCTGTSSDVGGYNYVSWYQQHPGKAPKVMIYDVTNRPSGVSNRFSGSKSGNTASLTISGLQAEDEADYYCSSYTIASTLVVFGGGTKLTVL
notes: Tested as human IgG1
Take B2: the values for the binding result with ALPL and in the experiment with ALPP were “no binding” and “binds”, respectively. Also, in the experiment with ALPPL2 [1], the Kd stood at 0.0204 nM.

B3: M25AD IgG1 (antibody, V domains shown)
VH: B1 VH
VL: B2 VL with I95S, A96T
notes: Tested in its IgG1 form; also called a variant of M25
For B3, the Kd with ALPPL2 [2] was 0.028 nM.

B4: M25 IgG1 (antibody, V domains shown)
VH: B1 VH with D33A
VL: B2 VL with I95S, A96T
notes: also called our M25 antibody; our anti-ALPPL2 antibody M25
For the molecule B4, the binding result is reported as “no binding” with ALPL, “no binding” with ALPI and “binds” with ALPP. In the experiment with ALPPL2 [3], this molecule showed a Kd of 0.506 nM.

The values above are taken from patent publication US20240374748A1 (University of California, published 2024).
